Series [1] concerns the molecule itself. Briefly: non-reducing SDS-PAGE; purified COMP, 4 μg/lane, 4–12 % SDS-PAGE under non-reducing conditions, Coomassie Brilliant Blue staining; under reducing conditions (5 % β-mercaptoethanol) a monomer band at ~100 kDa.
Series [2] deals with the molecule itself. Kind of series: non-reducing SDS-PAGE with immunoblot; hCOMP (520 nM) incubated with ADAMTS4 WT (12 nM) for 2 h at 37 °C in TNC-B; non-reducing SDS-PAGE, immunoblot with anti-QQS77 neoepitope antibody. (In general: In western blotting, separated proteins are transferred to a membrane and probed.)

B1: Drosophila melanogaster S2-expressed human COMP (Cartilage Oligomeric Matrix Protein) (natural protein)
chain: not shown
modifications: N-linked glycans (shown by PNGase F)
notes: Cartilage Oligomeric Matrix Protein, human; the Drosophila BiP secretion signal is fused to Gly22 of COMP and cleaved off before secretion to give a native N terminus; numbers count on NP_000086.2 (precursor); on non-reducing SDS-PAGE a mixture of monomers to pentamers was seen; also called iCOMP; thrombospondin 5; source: Drosophila melanogaster Schneider 2 (S2) cells, purified from conditioned …
As to B1, the binding result in series [1] is recorded as “binds”.

B2: fully cleaved N-terminal domain (NTD) of COMP ending at the QQS77 neoepitope (domain or fragment, human, UniProt P49747-1 21-77, looked up)
chain: QGQSPLGSDLGPQMLRELQETNAALQDVRELLRQQVREITFLKNTVMECDACGMQQS
notes: Cartilage Oligomeric Matrix Protein, human, N-terminal product of the cleavage at the S77-V78 bond; numbers count on NP_000086.2 (precursor); Made by proteolysis of m2; also called fully cleaved NTD pentamer; N-terminal cleavage fragment; source: hCOMP (520 nM, purified from Freestyle 293-F medium) digested with purified ADAMTS4 (12 nM), 2 h, 37 °C
B2: the “stoichiometry N” value in series [2] is 5.

A word on the stoichiometry N: it is a count of units in the complex or per binding partner.

The values are drawn from article PMC12342048, “Cleavage of Cartilage Oligomeric Matrix Protein (COMP) by ADAMTS4 generates a neoepitope associated with osteoarthritis and other forms of degenerative joint disease” (Matrix biology : journal of the International Society for …, 2024).
